Experimental data taken from the supplement of paper PMC10724198.
± gives the standard deviation of the averaged measurements.

Tests used:
[1] = test system: Saccharomyces cerevisiae; assay: protein stability index of tFT-peptide fusion (C-terminal peptide) (PSI (0-1 scale)); higher = more stable (slower turnover)
Procedure: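 MPS profiling in S. cerevisiae of the tFT-X12 degron library: putative degron peptides plus stable controls, 12 aa, fused to the C-terminus of a sfGFP-mCherry timer. Cells are FACS-sorted into 8 mCherry/sfGFP bins and deep-sequenced. PSI runs from 0 (unstable) to 1 (stable). Backgrounds are wild type, das1Δ and doa10Δ at 30 °C, and wild type, das1Δ, cdc34-1 and cdc53-1 at 37 °C; 2-3 technical replicates each.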

[2] = test system: Saccharomyces cerevisiae; assay: as above; conditions: genetic background: wild type; temperature: 30 C
[3] = genetic background: cdc34-1, temperature: 37 C
[4] = genetic background: cdc53-1, temperature: 37 C
[5] = genetic background: das1 deletion, temperature: 30 C
[6] = genetic background: das1 deletion, temperature: 37 C
[7] = genetic background: doa10 deletion, temperature: 30 C
[8] = genetic background: wild type, temperature: 30 C
[9] = genetic background: wild type, temperature: 37 C
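Note: PSI is a weighted mean of sequencing reads over stability bins, variants kept only with over 10 reads, mCherry proximal and sfGFP distal, peptide attached via GGGS linker.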

Sequence	protein stability index [1, 3]	protein stability index [1, 4]	protein stability index [1, 5]	protein stability index [1, 6]	protein stability index [1, 7]	protein stability index [1, 8]	protein stability index [1, 9]	protein stability index [2]
FVSGRFLFFFVL	0.52 ± 0.029	0.675 ± 0.0071	0.489 ± 0.018	0.699 ± 0.014	0.162 ± 0.0036	0.144 ± 0.018	0.208 ± 0.0074	0.204 ± 0.04
FVSSLLPLLTLL	0.555 ± 0.032	0.636 ± 0.013	0.608 ± 0.032	0.694 ± 0.014	0.142 ± 0.0036	0.141 ± 0.012	0.218 ± 0.0057	0.293 ± 0.033
FVVVGVLFLCVG	0.256 ± 0.0023	0.4122 ± 0.00071	0.278 ± 0.023	0.479 ± 0.011	0.258 ± 0.0065	0.277 ± 0.03	0.442 ± 0.007	0.367 ± 0.025
FWFSFSFLCHSY	0.384 ± 0.022	0.4491 ± 0.001	0.358 ± 0.032	0.4386 ± 0.001	0.386 ± 0.02	0.38 ± 0.0095	0.407 ± 0.02	0.422 ± 0.016
FYFLSFLLLLSP	0.143 ± 0.0096	0.132 ± 0.021	0.182 ± 0.024	0.294 ± 0.0094	0.223 ± 0.0038	0.156 ± 0.035	0.245 ± 0.024	0.176 ± 0.012
FYGVRFLVCVSA	0.0202 ± 0.0026	0.0332 ± 0.0048	0.111 ± 0.037	0.117 ± 0.015	0.0738 ± 0.018	0.105 ± 0.03	0.096 ± 0.0045	0.1575 ± 0.0005
GAWLAVCVVREG	0.493 ± 0.04	0.568 ± 0.014	0.398 ± 0.023	0.589 ± 0.0069	0.37 ± 0.007	0.405 ± 0.021	0.5526 ± 0.0021	0.479 ± 0.022
GCILSLCYAVST	0.555 ± 0.051	0.569 ± 0.024	0.332 ± 0.026	0.534 ± 0.014	0.296 ± 0.0074	0.318 ± 0.018	0.523 ± 0.013	0.389 ± 0.016
GCVTFVLISFCA	0.238 ± 0.007	0.306 ± 0.039	0.225 ± 0.03	0.425 ± 0.012	0.186 ± 0.035	0.208 ± 0.027	0.386 ± 0.012	0.358 ± 0.016
GELVLVMYGIWV	0.392 ± 0.013	0.47 ± 0.0055	0.29 ± 0.028	0.502 ± 0.013	0.238 ± 0.0055	0.277 ± 0.033	0.458 ± 0.0063	0.351 ± 0.058
GFESTCSLLCVF	0.33 ± 0.026	0.348 ± 0.015	0.314 ± 0.036	0.433 ± 0.001	0.264 ± 0.021	0.306 ± 0.026	0.407 ± 0.013	0.43 ± 0.029
GFFFFHGLCFFV	0.448 ± 0.017	0.513 ± 0.028	0.382 ± 0.029	0.5453 ± 0.0035	0.358 ± 0.028	0.355 ± 0.023	0.526 ± 0.02	0.43 ± 0.047
GFFFWTMCFWVV	0.255 ± 0.01	0.349 ± 0.022	0.303 ± 0.038	0.456 ± 0.011	0.204 ± 0.0089	0.194 ± 0.02	0.322 ± 0.026	0.284 ± 0.046
GFLVPSSPRCHQ	0.708 ± 0.018	0.72 ± 0.039	0.6427 ± 0.0046	0.72 ± 0.0086	0.654 ± 0.018	0.681 ± 0.047	0.691 ± 0.012	0.727 ± 0.0082
GFSPLFVLVFGV	0.47 ± 0.012	0.486 ± 0.024	0.312 ± 0.027	0.518 ± 0.012	0.333 ± 0.016	0.311 ± 0.013	0.489 ± 0.011	0.4261 ± 0.0035
GGGSASGWRAAA	0.665 ± 0.0097	0.735 ± 0.015	0.633 ± 0.0096	0.716 ± 0.027	0.344 ± 0.0043	0.39 ± 0.022	0.639 ± 0.0072	0.48 ± 0.025
GGKTLSIFLRIS	0.611 ± 0.029	0.693 ± 0.021	0.554 ± 0.022	0.665 ± 0.0095	0.14 ± 0.013	0.159 ± 0.013	0.295 ± 0.017	0.258 ± 0.0057
GGLVVYVWGRWS	0.526 ± 0.017	0.592 ± 0.025	0.383 ± 0.016	0.589 ± 0.009	0.356 ± 0.021	0.377 ± 0.015	0.573 ± 0.023	0.457 ± 0.024
GGLWRRLCLGVG	0.4 ± 0.021	0.4633 ± 0.0012	0.388 ± 0.018	0.469 ± 0.011	0.3 ± 0.0089	0.311 ± 0.016	0.453 ± 0.016	0.329 ± 0.041
GGVCVRMECWMG	0.57 ± 0.036	0.629 ± 0.018	0.486 ± 0.032	0.5789 ± 0.0015	0.485 ± 0.03	0.496 ± 0.034	0.5864 ± 0.0051	0.496 ± 0.0059
